In patent US20100111852A1 (FORERUNNER PHARMA RESEARCH, published 2010):
Numbering of substitutions follows the chain as printed.

T1: human Claudin 3 (human, UniProt O15551 1-220)
T1 construct: forced expression in DG44 or Ba/F3 cells, or endogenous on MCF7 cells; four-transmembrane tight junction protein; also called hCLDN3; hCLN3
T1 sequence: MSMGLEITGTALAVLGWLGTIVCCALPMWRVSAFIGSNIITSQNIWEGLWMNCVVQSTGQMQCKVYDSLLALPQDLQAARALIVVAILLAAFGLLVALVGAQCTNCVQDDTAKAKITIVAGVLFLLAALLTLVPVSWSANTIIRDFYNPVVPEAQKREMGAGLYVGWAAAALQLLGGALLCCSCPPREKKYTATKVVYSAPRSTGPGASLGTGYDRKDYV

T2: human Claudin 1 with C-terminal FLAG tag (human, UniProt O95832 1-211)
T2 construct: whole, on cells; forced expression in Ba/F3 cells; also called hCLDN1; hCLN1
T2 sequence (looked up): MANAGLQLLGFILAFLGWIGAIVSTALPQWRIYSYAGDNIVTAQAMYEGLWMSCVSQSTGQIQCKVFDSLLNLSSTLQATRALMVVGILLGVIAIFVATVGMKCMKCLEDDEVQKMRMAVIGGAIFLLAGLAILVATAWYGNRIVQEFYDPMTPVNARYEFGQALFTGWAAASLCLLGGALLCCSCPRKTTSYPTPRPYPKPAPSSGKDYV

T3: human Claudin 4 with C-terminal FLAG tag (human, UniProt O14493 1-209)
T3 construct: whole, on cells; forced expression in Ba/F3 cells; also called hCLDN4; hCLN4
T3 sequence (looked up): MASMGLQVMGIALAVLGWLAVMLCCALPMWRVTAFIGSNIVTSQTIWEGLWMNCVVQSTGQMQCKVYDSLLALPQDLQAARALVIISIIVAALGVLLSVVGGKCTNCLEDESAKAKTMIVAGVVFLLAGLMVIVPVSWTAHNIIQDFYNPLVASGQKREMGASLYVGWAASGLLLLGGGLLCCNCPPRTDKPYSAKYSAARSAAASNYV

T4: human Claudin 6 with C-terminal FLAG tag (human, UniProt P56747 1-220)
T4 construct: whole, on cells; forced expression in Ba/F3 cells; also called hCLDN6; hCLN6
T4 sequence (looked up): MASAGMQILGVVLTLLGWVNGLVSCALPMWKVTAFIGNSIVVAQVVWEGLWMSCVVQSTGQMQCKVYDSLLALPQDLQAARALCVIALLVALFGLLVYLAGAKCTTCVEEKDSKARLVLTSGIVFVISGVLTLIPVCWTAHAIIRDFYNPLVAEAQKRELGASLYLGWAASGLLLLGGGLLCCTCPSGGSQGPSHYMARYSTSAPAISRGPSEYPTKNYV

T5: mouse Claudin 3 (mouse, UniProt Q9Z0G9 1-219)
T5 construct: whole, on cells; also called mCLDN3; mCLN3
T5 sequence (looked up): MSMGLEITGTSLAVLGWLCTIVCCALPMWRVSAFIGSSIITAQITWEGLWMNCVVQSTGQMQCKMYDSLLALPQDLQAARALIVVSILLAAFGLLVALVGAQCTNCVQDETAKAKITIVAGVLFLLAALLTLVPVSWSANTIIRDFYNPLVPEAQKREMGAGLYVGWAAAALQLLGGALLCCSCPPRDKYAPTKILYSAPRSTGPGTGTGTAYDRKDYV

B1: CDN04 (antibody, mouse IgG1, kappa, V domains shown)
VH: EVQLQQSGPELVKPGASMKISCKASGYSFTGYTMNWMKQGHGKNLEWIGLINPYNGGTSYNQKFKDKATLTLDKSSSSAYMELLSLTSEDSAVYYCARGSYGSSYFDYWGQGTTLTVSS
VL: DIVMSQSPSSLAVSVGEKVTMSCKSSQSLLYGSNQKNYLAWYQQKPGQSPKLLIYWASTRESGVPDRFTGSGSGTDFTLTISSVKAEDLAVYYCQQYYNFPYTFGGGTKLEIKR
notes: mouse monoclonal, IgG1/IgK; also called CDN4
B2: CDN28 (antibody, mouse IgG1, kappa, V domains shown)
VH: EVQLQQSGPELVKPGASVKISCKASGYSFTGYFMNWVKQSHGKSLEWLGRINPYNGDTFYNQKFKGKATLTVDKSSNTAHMELRSLTSEDSAVYYCARGDGYYVTSLAYWGQGTLVTVSA
VL: NIVMTQSPKSMSMSVGERVTLSCKASENVVSYVSWFQQKPEQSPKLLIYGASNRYTGVPDRFTGSGSATDFTLTISSVQAEDLADYYCGQSYSYPLTFGAGTKLELKR
notes: mouse monoclonal, IgG1/IgK
B3: CDN35 (antibody, V domains shown)
VH: EVQLQQSGPELVKPGASVKMSCKASGYTFTDYYMNWVKQSHGKSLEWIGRVNPSNGGTSYNQKFKGKATLTVDKSLSTAYMQLNSLTSEDSAVYYCARGLAYYSNSFTYWGQGTLVTVSA
VL: KIVLTQSPASLAVSLRQRATISCRASESVDSYGNSFMHWYQQKPGQPPKLLIYRASNLESGVPARFSGSGSRTDFTLTIDPVEADDAATYYCQQNNEDPWTFGGGTKLEIKR
notes: mouse monoclonal, IgG2a/IgK
B4: CDN16 (antibody, mouse IgG2b, kappa, V domains shown)
VH: B3 VH with T108V
VL: B3 VL
notes: mouse monoclonal, IgG2b/IgK
B5: CDN27 (antibody, V domains shown)
VH: EVQLQQSGPELVKPGASVKISCKASGYSFTGYFMNWVKQSHGKSLEWIGRINPYNGDTFYNQKFKGKATLTVDKSSSTAHMELRSLTSEDSAVYYCARSGDWYFDVWGAGTTVTVSS
VL: DIVLTQSPASLAVSLGQRATISCRASKSVSTSSYSYMHWYQQKPGQPPKLLIKFASYLESGVPARFSGSGSGTDFTLNIHPVEEEDAATYYCQHSREFPRTFGGGTKLEIKR
notes: mouse monoclonal, IgG2a/IgK
B6: CDN38 (antibody, V domains shown)
VH: B5 VH with I20M, V93L, D101N, W102Y, Y103V, F104M, V106Y, A109Q, T112S
VL: DIVLTQSPASLAVSLGQSVTISCRASESVEYYGTSLMQWYQQKPGQPPKLLIYGASNVESGVPARFSGSGSGTDFSLNIHPVEEDDIAMYFCQQSRKVPWTFGGGTKLEIKR

These binders were tested against T1, human Claudin 3 (assay: flow cytometry, hCLDN3/DG44 cells, 1 ug/mL antibody).
B1 was tested, and the X geometric mean was 180. For B2, the X geometric mean was 1450. In the case of B3, the X geometric mean is reported as 869. B4 was tested, and the X geometric mean was 928. Binder B5 has a X geometric mean of 1790. B6 was tested, and the X geometric mean was 215.

Each binder was assayed against T1, human Claudin 3 (assay: flow cytometry, hCLDN3/DG44 cells, 5 ug/mL antibody).
B1 was tested, and the X geometric mean was 667. For B2, the X geometric mean was 1990. B3 showed a X geometric mean of 2300. Binder B4 has a X geometric mean of 2480. With B5 the X geometric mean was 2700. B6 gave a X geometric mean of 258.

What follows are binders tested against T2, human Claudin 1 with C-terminal FLAG tag (assay: flow cytometry, hCLDN1/Ba/F3 cells, 2 ug/mL antibody).
Experimental: (§1) A monoclonal antibody was added to the respective forced expression cells, and then incubated at 4° C. for 30 minutes. After incubation, the cells were washed once with a PBS solution containing 1% fetal bovine serum, then a 150-fold dilution of an FITC-goat anti-mouse IgG (H+L) antibody (Beckman Coulter) was added, and this was incubated at 4° C. for 30 minutes. The amount of antibodies bound per cell was measured using FACSCalibur, and the X geometric mean value, which is the geometric mean of the cell fluorescence intensity, was calculated using the accessory CellQuest Pro analysis software of FACSCalibur.
(§2) The cross reactivity for human Claudin 3, human Claudin 1, human Claudin 4, human Claudin 6, and mouse Claudin 3 forcedly expressed in Ba/F3 was evaluated using at a final antibody concentration of 2 μg/mL.
In the case of B1, the X geometric mean is reported as 11. Binder B2 has a X geometric mean of 12. B5 gave a X geometric mean of 42. B6 gave a X geometric mean of 7.

Each binder was assayed against T1, human Claudin 3 (assay: flow cytometry, hCLDN3/Ba/F3 cells, 2 ug/mL antibody).
Experimental: as §1, §2
B1 gave a X geometric mean of 366. B2 was tested, and the X geometric mean was 1430. For B3, the X geometric mean was 2150. For B4, the X geometric mean was 1980. B5 showed a X geometric mean of 3340. Work on B6 yielded a X geometric mean of 142.

Each binder was assayed against T3, human Claudin 4 with C-terminal FLAG tag (assay: flow cytometry, hCLDN4/Ba/F3 cells, 2 ug/mL antibody).
Experimental: as §1, §2
B1 showed a X geometric mean of 14. B2 gave a X geometric mean of 27. With B3 the X geometric mean was 59. B4 gave a X geometric mean of 11. Binder B5 has a X geometric mean of 302. In the case of B6, the X geometric mean is reported as 74.

The binders below were run against T4, human Claudin 6 with C-terminal FLAG tag (assay: flow cytometry, hCLDN6/Ba/F3 cells, 2 ug/mL antibody).
Experimental: as §1, §2
Binder B1 has a X geometric mean of 9. For B2, the X geometric mean was 9. Work on B3 yielded a X geometric mean of 36. In the case of B4, the X geometric mean is reported as 9. B5 was tested, and the X geometric mean was 25. Binder B6 has a X geometric mean of 9.

Each binder was assayed against T5, mouse Claudin 3 (assay: flow cytometry, mCLDN3/Ba/F3 cells, 2 ug/mL antibody).
Experimental: as §1, §2
B1 gave a X geometric mean of 16. For B3, the X geometric mean was 1310. B4 gave a X geometric mean of 1270. For B5, the X geometric mean was 50. Binder B6 has a X geometric mean of 115.

What follows are binders tested against T1, human Claudin 3 (assay: flow cytometry, hCLDN3/DG44 cells, 0.1 ug/mL antibody).
Work on B1 yielded a X geometric mean of 28. Binder B2 has a X geometric mean of 275. B3 was tested, and the X geometric mean was 120. B4 was tested, and the X geometric mean was 125. B5 was tested, and the X geometric mean was 308. In the case of B6, the X geometric mean is reported as 207.

These binders were tested against T1, human Claudin 3 (assay: flow cytometry, MCF7 cells (endogenous Claudin 3), 1 ug/mL antibody).
Experimental: as §1
(§3) The affinity of the antibodies to the MCF7 breast cancer cell line (ATCC, HTB-22), which endogenously expresses Claudin 3, was evaluated by the flow cytometry method.
With B1 the X geometric mean was 47. B2 was tested, and the X geometric mean was 175. B3 gave a X geometric mean of 176. Binder B4 has a X geometric mean of 125. In the case of B5, the X geometric mean is reported as 202. Work on B6 yielded a X geometric mean of 63.

The binders below were run against T1, human Claudin 3 (assay: flow cytometry, MCF7 cells (endogenous Claudin 3), 5 ug/mL antibody).
Experimental: as §1, §3
Binder B1 has a X geometric mean of 130. With B2 the X geometric mean was 186. Work on B3 yielded a X geometric mean of 380. B4 was tested, and the X geometric mean was 361. With B5 the X geometric mean was 310. For B6, the X geometric mean was 61.
